Data set [1] deals with 293A cells. Description: Insulin-mediated glucose uptake (2DG) in 293A cells. The format is cell-based, human. The note with it: insulin 15 min, 2DG 15 min, vs controls infected with vector alone, p≦0.05. As for the experimental part: FIG. 12A-D illustrates that “knock-down” BVR and Y^198 detection increased glucose uptake into 293A cells upon insulin induction. As shown in the graph of FIG. 12A, insulin treatment increases BVR activity. 293A cells were treated with insulin (50 nM) and subsequently used at indicated time points for BVR activity measurement. […] Purified BVR was phosphorylated by IRK for the indicated periods. Reactions were terminated by diluting with PBS and freezing at −20° C. BVR activity was determined as in FIG. 12A, and normalized to that of the control (43.8 μmol per min per mg). […] 293A cells were incubated with insulin and after 8 min or 30 min, subjected to immunoprecipitation using anti-human BVR antibodies. The phosphorylated BVR was visualized by immunoblotting using anti-tyrosine antibodies. ECL system was used for visualization of phosphorylated BVR. […]
Glucose uptake was assessed by measuring 2-deoxy 1-[^3H] glucose (2DG) absorption as described by (Braiman et al. (Mol. Endocrinol. 13:2002-12 (1999)), which is hereby incorporated by reference), with minor modifications. […] Radioactivity was measured and data was normalized to protein concentration. Non-specific uptake was determined in the presence of 200 mM of glucose and was subtracted from the total uptake. […]

Data set [2] concerns human epithelial kidney (HEK) cells. The experiment in a line: Insulin-dependent glucose uptake in HEK cells. It counts as cell-based. The note with it: myristoylated peptide 2 h, then insulin 100 nM 10 min. The procedure:
(§1) FIGS. 15A-B show the effect of hBVR-based peptides on IGF-dependent glucose uptake in rat smooth muscle cells (PAC1) (FIG. 15A) and insulin-dependent glucose uptake in human epithelial kidney (HEK) cells (FIG. 15B). Cells were treated as described for FIG. 14 and glucose uptake was measured as described infra.
(§2) The therapeutic utility of various BVR peptides with regard to their ability to modify insulin and insulin growth factor (IGF) mediated cellular glucose uptake was evaluated. Human embryonic kidney cells (HEK293) or rat aortic smooth muscle cells (PAC) were starved in low glucose serum-depleted DMEM for twenty hours prior to transfer to PBS containing CaCl2, MgCl2. After two hours, myristoylated peptides were added to the medium for two additional hours. Thereafter, IGF-1 (50 ng/ml) or insulin (100 nM) was added (10 min) and glucose uptake was tested for three minutes in the presence of methyl-D-glucose,3-O-[methyl-3H]. Subsequently, cells were washed three times in cold PBS and solubilized in NaOH (0.05 mM). Aliquots were measured for radioactivity. Non-specific binding or diffusion was tested by addition of 300 mM glucose to the cells. This value was deducted from the total counts (on the average <20%) and results were normalized for protein concentration.

Data set [3] relates to rat smooth muscle cells (PAC1). Description: Glucose uptake in PAC1 cells (IGF-dependent). It counts as cell-based. As to conditions: myristoylated peptide 2 h, then IGF-1 50 ng/ml 10 min. The procedure:
Glucose uptake was tested as described infra. Cells were starved in low glucose serum-depleted DMEM for 20 hours prior to transfer to PBS containing CaCl2, MgCl2. After 2 hrs myristoylated peptides were added to the medium for 2 hours. Thereafter, IGF-1 (50 ng/ml) or insulin (100 nM) was added (10 min) and glucose uptake was tested for 3 min in the presence of methyl-D-glucose,3-O-[methyl-3H]. Subsequently cells were washed 3 times in cold PBS and solubilized in NaOH (0.05 mM). Aliquots were measured for radioactivity. Non-specific binding or diffusion were tested by addition of 300 mM glucose to the cells. This value was deducted from the total counts (on the average <20%) and results were normalized for protein concentration.
as §1, §2

Data set [4] deals with insulin receptor substrate-1 (IRS-1) peptide Y^608.
In data set [5] the test system is human BVR. Description: BVR autophosphorylation. The note with it: pH 8.4, 30 mM MnCl2, 2 h at 30° C. The format is biochemical. As for the experimental part: In FIG. 9A, effect of tyrosine mutations of BVR on its autophosphorylation is shown. Human wtBVR and BVR with mutations in tyrosine were used in the experiment to determine autophosphorylation of BVR. The reactions were performed as described in the Examples. FIG. 9B is a graph showing that BVR tyrosine kinase activity was checked by incubating 5 μg purified BVR with 5 μg Raytide in 50 μl kinase buffer containing 10 μM labeled ATP for 2 h at 30° C. The aliquots of the reaction were transferred onto P81 Whatman filters and radioactivity due to phosphorylation was measured using a scintillation counter.
FIGS. 10A-B illustrate that autophosphorylation of BVR is an Mn^+2 dependant kinase reaction. […] The effects of different metal ions (30 mM MnCl2, 20 mM MgCl2, 20 mM CaCl2, 20 mM Zn acetate) and their combinations were analyzed as indicated in the text. […] Phosphorylation of wtBVR by IRK in the presence of tyrosine kinase inhibitor genestein (200 μM); DMSO was used as the vehicle for genestein and was included in the control reaction mixture. The reactions were carried out in HEPES buffer (pH 8.0) in the presence of 20 mM MgCl2 as described in the Examples.
To detect autophosphorylation of BVR, GST-hBVR of wild type (wt) and mutant variants were incubated in 50 mM HEPES buffer (pH 8.4) in the presence of 30 mM MnCl2 and 1 mM DTT for 2 h at 30° C. The reaction was started with the addition of 10 μM ATP labeled with 10 μCi [γ-^32P]-ATP and was stopped with the addition of Laemmli sample buffer. Samples were boiled for 3 min and applied to a 8% SDS-PAGE gels, transferred to a PVDF membrane, and then visualized by autoradiography. […] The reaction was started with the addition of ATP and terminated by adding 120 μl 10% H3PO4. 100 μl aliquots were directly transferred to P81 Whatman filters which were subsequently washed extensively in 0.75% phosphoric acid at room temperature. Finally, the filters were submerged in acetone for 5 min, dried, and retained counts were measured using a Beckman LS 6500 liquid scintillation counter (Beckman Coulter, Fullerton, Calif.).

The target of data set [6] is T1, insulin receptor kinase (IRK) (Homo sapiens, UniProt P06213).
T1 construct: GST-hBVR fusion protein and the 48 kDa cytoplasmic domain of the β-subunit of IRK; purchased Biomol International (Plymouth, Pa.)
The experiment in a line: BVR phosphorylation by the insulin receptor tyrosine kinase (IRK). The format is biochemical. As to conditions: tyrosine point mutant as IRK substrate, 2 h at 30° C. The procedure: FIGS. 7A-B illustrate BVR as a substrate for insulin receptor kinase. […] 10 μg purified wtBVR was incubated in 100 μl kinase assay buffer (pH 8.0) containing 0.1 μg IRK, 10 μM ATP, and 20 μCi [^32P]-ATP at 25° C. up to 4 h. The reaction was terminated by the addition of Laemmli buffer at different points of time as indicated. Samples were separated using 8% SDS-PAGE gel and transferred onto PVDF filter, and phosphorylated protein bands were visualized by autoradiography. […] From left to right lane 1, wtBVR plus IRK in the presence of 50 mM EDTA (pH 8.0); lane 2, wtBVR plus IRK; lane 3, wtBVR in the absence of IRK. The reaction mixtures were subjected to SDS-PAGE electrophoresis and transferred onto a polyvinylidene fluoride (“PVDF”) filter. The blot was immuno-stained with anti-phosphotyrosine antibodies and ECL detection system was used to visualize phosphorylated tyrosines. […] In FIG. 8A the Y^198 residue of BVR is phosphorylated by IRK. Purified wtBVR and Y^198 mutant BVR were incubated with IRK at 30° C. for 2 h. Samples were subjected to SDS-PAGE electrophoresis and processed as described in FIG. 8B. FIG. 8B is a time course of Y^198 mutant BVR phosphorylation by IRK. A purified preparation of human BVR that carried Y^198 mutation was incubated with IRK for up to 3 h as described in FIG. 7A. Samples taken at the indicated time-points were analyzed for detection of phosphorylated proteins as above. […] Subsequently, samples were subjected to SDS-PAGE, stained with Coomassie blue and visualized bands were excised and used for measurement of radioactive content. The experiments were repeated three times. […] The indicated double mutants of BVR were used as substrates for IRK and analysis was carried out as in FIG. 8A. FIGS. 10A-B illustrate that autophosphorylation of BVR is an Mn^+2 dependant kinase reaction. […] The effects of different metal ions (30 mM MnCl2, 20 mM MgCl2, 20 mM CaCl2, 20 mM Zn acetate) and their combinations were analyzed as indicated in the text. […] The reactions were carried out in HEPES buffer (pH 8.0) in the presence of 20 mM MgCl2 as described in the Examples. Phosphorylation of BVR by IRK was examined using GST-hBVR fusion protein and the 48 kDa cytoplasmic domain of the β-subunit of IRK. BVR (5 μg) was incubated in 50 μl of IRK kinase buffer containing 50 mM HEPES (pH 8.0), 20 mM MgCl2, 1 mM DTT in the presence of 0.05 μg IRK and 10 μM ATP labeled with 10 μCi [γ-^32P]-ATP. The reaction was started with the addition of labeled ATP and incubated for 2-4 h. Reactions were terminated by addition of Laemmli sample buffer and boiled for 3 min. Samples were subjected to 8% SDS-PAGE and transferred to PVDF membranes for autoradiography.

T1 sequence (P06213 980-1382 limits assumed): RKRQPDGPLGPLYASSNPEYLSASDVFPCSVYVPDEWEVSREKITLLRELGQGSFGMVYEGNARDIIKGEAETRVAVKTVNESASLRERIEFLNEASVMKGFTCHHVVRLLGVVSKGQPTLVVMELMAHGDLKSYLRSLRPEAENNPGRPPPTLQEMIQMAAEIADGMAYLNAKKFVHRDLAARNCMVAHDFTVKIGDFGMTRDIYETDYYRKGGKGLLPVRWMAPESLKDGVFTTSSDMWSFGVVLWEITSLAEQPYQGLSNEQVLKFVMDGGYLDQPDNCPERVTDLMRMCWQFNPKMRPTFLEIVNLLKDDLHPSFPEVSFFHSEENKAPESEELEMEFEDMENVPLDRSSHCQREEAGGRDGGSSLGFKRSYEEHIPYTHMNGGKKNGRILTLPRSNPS

Consider “siBVR: human BVR siRNA, target nt96-nt116, expressed from retroviral vector pSuper-Retro-siBVR (chain 1 UCCUCAGCGUUCCUGAACCUG; chain 2 AGGAGUCGCAAGGACUUGGAC)”, for which the “insulin-mediated glucose uptake by cells” value in data set [1] is recorded as “significantly increased insulin-mediated glucose uptake”. As to “KRNRYLSF (Biliverdin reductase derived peptide) [hBVR peptide, amino acids 224-231 of BVR]”, in data set [2], the “insulin mediated cellular glucose uptake in HEK cells” value was “antagonizing insulin mediated cellular glucose uptake”. In addition, the “IGF-mediated cellular glucose uptake in PAC1 cells” value in data set [3] is on record as “inhibit IGF-mediated cellular glucose uptake”. As for “GST-hBVR G17 mutant (GVGRA to GVARA), ATP binding domain mutant”, the “IRS phosphorylation by BVR (kinase assay)” value in data set [4] is on record as “G^17 mutation, for the most part, prevented IRS phosphorylation by BVR”.

B1: Y^198: human BVR point mutant DQYMK to DQFMK (protein, UniProt P53004 3-296, looked up, variant Y198F)
Biliverdin reductase A: AEPERKFGVVVVGVGRAGSVRMRDLRNPHPSSAFLNLIGFVSRRELGSIDGVQQISLEDALSSQEVEVAYICSESSSHEDYIRQFLNAGKHVLVEYPMTLSLAAAQELWELAEQKGKVLHEEHVELLMEEFAFLKKEVVGKDLLKGSLLFTAGPLEEERFGFPAFSGISRLTWLVSLFGELSLVSATLEERKEDQFMKMTVCLETEKKSPLSWIEEKGPGLKRNRYLSFHFKSGSLENVPNVGVNKNIFLKDQNIFVQKLLGQFSEKELAAEKKRILHCLGLAEEIQKYCCSRK
With B1, in data set [5], the “autophosphorylation of BVR (mutants)” value is given as “did not result in significant changes in autophosphorylation of BVR”. In addition, in data set [6], the “reduction of extent of BVR phosphorylation by IRK compared with wtBVR” value was around 70%. Moreover, the “insulin-mediated glucose uptake by cells” value in data set [1] is on record as “increased significantly”.

Source of the values: patent US20130344053A1, “Methods of Modifying Insulin Signaling Using Biliverdin Reductase (BVR) and BVR Derived Peptides” (University of Rochester, priority 2010, published 2013).
